{
  "source": "the DeepSol protein solubility set",
  "data": [
    {"assay": "soluble on expression in E. coli; label from the status in PepcDB or PDB records", "values": [
      {"sequence": "MSLKLLIVENDRDTAAALTTSLVAQQFTVDTASDSRSALELAEATEYDLIVLDVMLPDENGIRLCRQLRTQNQQEPILLLTRKVNPADRIAGFEAGADDYITKPYELSELLARIRALLRRGSTVLTKVLCWGQLQLDPNNCEVMCQGKGLHLTPKEYKLLELFLRHPRRIFDRRTLLDRICSIDECPGEEAITTQIRGLRRKLQMAGLNSDPIETLYGLGYRLKSEGHHHHHH", "soluble on expression in E. coli": "not soluble"},
      {"sequence": "MSLKLNTSNSPFTEKQVTEINNLLQTLTESQQQWLSGFLLANSNDTTSDSNQQQLETEVWQQSQISEEQATSTTYMLQNKEPHIEANQRHVTVLYGSESGNAMRLAEIFSERLSDIGHQVVLMSMDEYDTTNIAQLEDLFIITSTHGEGEPPDNAWDFFEFLEDDNAPNLNHVRYSVLALGDQTYEFFCQAGKDVDALLENLGAERICKRVDCDIDYEEDAEKWMADIINMIDTTSEGIQSESVISESIKSAKEKKYSKLNPYQAEVLANINLNGTDSNKETRHIEFLLDDFSESYEPGDCIVALPQNDPELVEKLISMLGWDPQSPVPINDRGDTVPIVEALTSHFEFTKLTLPLLKNADIYFDNEELSERIQDESWAREYVINRDFIDLITDFPTIELQPENMYQILRKLPPREYSISSSFMATPDEVHITVGTVRYQAHGRERKGVCSVHFAERIKPGDIVPIYLKKNPNFKFPMKQDIPVIMIGPGTGIAPFRAYLQEREELGMTGKTWLFFGDQHRSSDFLYEEEIEEWLENGNLTRVDLAFSRDQEHKEYVQHRIMEESERFNEWIEQGAAIYICGDEKCMAKDVHQAIKDVLVKERHISQEEAELLLRQMKQQQRYQRDVYEGHHHHHH", "soluble on expression in E. coli": "soluble"},
      {"sequence": "MSLKLQASNVTNKNDPKSINSRVFIGNLNTALVKKSDVETIFSKYGRVAGCSVHKGYAFVQYSNERHARAAVLGENGRVLAGQTLDINMAGEPKPDR", "soluble on expression in E. coli": "soluble"},
      {"sequence": "MSLKMTFCRAVCLAAAFLLMGCDEAPETTTASPAAQVLEGKTMGTLWRVSVVGIDAKRAAELQTKIQTQLDADDWLLSTYKNDSALMRFNHSRSLAPWPVSEAMADIVTSALRIGAKTDGAMDITVGPLVNLWGFGPDRQPLHIPTPAQIDAAKAKTGLQHLQVIDRAGHQFLQKDLPDLYVDLSTVGEGYAADHLARLMEQEGIARYLVSVGGALSSRGMNAQGQPWRVAIQKPTDRENAVQAIVDINGHGISTSGSYRNYYELDGKRVSHVIDPQTGRPIEHNLVSVTVIAPTALEADGWDTGLMVLGTQKAQEVVRREGLAVFMIMKEGEGFKTWMSPQFKTFLVSDKNEGGSHHHHHH", "soluble on expression in E. coli": "soluble"},
      {"sequence": "MSLKNELEFAKKLIDFIYDSPSPFHSVDNIKNTLIENGFAEIKEENKWELNKNGKYFVKRNDSALIAFTVGSGFVAKKGFKIIGGHTDSPTFRIKPNPEMVSENSYIKLNTEVYGGPILSTWFDRPLSIAGRVTVRGKSALFPETKLLNIKRPILVIPNLAIHMNRDVNSGFKINPQVDTLPIIGIINDKFEKENYLMKIIASELGEDIENIIDFDLFLYEYDKGCIMGINNEFISSSRLDDMEMVHAGLNALVNAKCSEATNVLACFDNEEIGSATKQGADSQFLSDILERIVLSFGGDREDFFRALHNSFMISSDSAHAVHPNKGEKADPITRPHINEGPVIKISAAQKYTSDSNSIAVYEEVCRLSGVPYQKFVNRSDERGGSTIGPITATHTAIRTVDIGTPLLAMHSIRELCGTLDHMYVEKSFEEFYNEGHHHHHH", "soluble on expression in E. coli": "soluble"},
      {"sequence": "MSLKNGKIANIGLINYVDLGKIIIKAKEEGKTAVDFKAIEDIMPWDEFVSSINETSEITRPKEYNSLDLIAEKYSTLRKYTPRLLKILEFKASKKGEPVLKAMETIKELNANTKRKVPKGAPLDFVTNQWEKYVYDQEGNIDKKYYELAVFTELKNAVRSGDISIVGSKQHKPFEEYLITDSEWEKYKAENTDFKVSLDAEEYLKARLDLLNNKLKYVSDNIKKLKGVSIEDNKFVLSRLEKAVPDEAKELATKLYSLIPRVNLSDIIIDISKFTAFDNNLIHASTNKEPKDNERSCITASLMALGTNIGLKKMEQAVKGISYKQMSNVVNWRMSDDNMEKAMAAITNYHHRQPYAVHWGDGSTSSSDGVRVKSAVEALNASYNPHYGLEKGVTMYSAVSDQYSRFGVGIINTNSRDAIHIIDILLNHRTELEIEEHYTDTAGYTDQVFGLTHLLGFRFAPRLRDISDCKLYCIEGKEDFRNIQSVIKGKINTKIIKENYDDILKPVSSIKEGKVSGSLIMGKLGSYSRQNSLAKALTELGKIEKTIFILDYLSDEDFRRKIQIGLNKGEAMNALARAIFFGKYGMFHEKDIQGQLQRATALSIIINSITLWNTMYLPKAVEKLKEKEGVDESLLRHVSPLGWEHINFIGQYNLDDSSDYNLIDNMRPLREILQEGHHHHHH", "soluble on expression in E. coli": "not soluble"},
      {"sequence": "MSLKNITIGMVGVGRIGRMHVANMLAVAETLKERDLNIEIVLADAMPGFAEQVGADMGVKAAASVDKLIEDGVDALFIATSTAGHVDVLRKGIAAKLPMFCEKPIASDVPESLNIIREIDAAGATVQVGHQRRFDLGYQEAKRRLDAGDLGWLHSLKAVSSDAFPPPVSYCATSGGLFRDVSLHDFDIIRWLTGQDIVEVYAKGSNNGDPEIGAVGDIDTGAALLTLADGTLATAIATRYNGAGHDVRLDVMGSKDSTIVGLDEKSAFASAEEGIDFPTGESHPTFAERFADAYKNECIAFVELILGERENPCTPADAVAAAIVADAAQLSLVTGEPVKIPTVREILEGSAQPVEVRALVPSEGHHHHHH", "soluble on expression in E. coli": "soluble"},
      {"sequence": "MSLKNLILAIESSCDDSSIAIIDKNTLECKFHKKISQELDHSIYGGVVPELAARLHSEALPKMLKQCKEHFKNLCAIAVTNEPGLSVSLLSGISMAKTLASALNLPLIPINHLKGHIYSLFLEEKISLDMGILLVSGGHTMVLYLKDDASLELLASTNDDSFGESFDKVAKMMNLGYPGGVIIENLAKNAKLKNISFNTPLKHSKELAFSFSGLKNAVRLEILKHENLNEDTKAEIAYAFENTACDHIMDKLEKIFNLYKFKNFGVVGGASANLNLRSRLQNLCQKYNANLKLAPLKFCSDNALMIARAAVDAYEKKEFVSVEEDILSPKNKNFSRIEGHHHHHH", "soluble on expression in E. coli": "soluble"},
      {"sequence": "MSLKNNRHFLKFYCIRDLSWLSSVRASFIYSSFESIASSPFSSYIELRKKPVKFLLILFIALTLCDCGRSKETQFYLLTPISPQKNSRNSYNHLQIGVDEVSIPDYMKKPQLMIHQTPHHLTLEEFNQWAGALDKNITLVLTTNLSTLMPGVVVQTSPWNNKFHPDYHLQVMISQFEIDIHGNSTLRAEYFIYRKEELIYKGNAYYHIKVPLISIETLVQSMNTNLTHLTEEIARFFIKNTTKEGHHHHHH", "soluble on expression in E. coli": "not soluble"},
      {"sequence": "MSLKNQIEKLLENFVPEGQQEKTDFKVFQDFAADEKNLNRSSIAHFTASVFVLNESHDKILGIYHKIYQSWGWVGGHADGNADLLAVAVKEVQEETGLRSFKKLSEMPISIEALPVFGHHHRKYGYVSAHIHLNVTFLFEAKESDSLQKNTDETGGLAWIPLEKFSEKSSEKEMRVIYDKIITRIINKEGHHHHHH", "soluble on expression in E. coli": "soluble"},
      {"sequence": "MSLKNVLTGLFLLILATACSEEEPQTITPVPFNQVTLTDGFWKNRMQTEINVTVPFSVEQSAPAVERFRRCAAFLAGDSTALPETHRFISSDLYKVMEGVSYSLMIQPNKELEEFMDRVADLITASQKDDGYLYISHICGNPDPREMGEKPYSWVVHSHELYNVGHLYEAAVAYYQATGKDKLLNVAIKSAKHVNKVFFEGGDPNYNGGKPINQAPGHEEIELALCKLYRVTNDPLYLDMAKKFLEIRGVTYRPEGEGVMAPTYAQQHAPVKEQTEAVGHAVRAAYLYTAMAQVDALTGLNDYTKALNSIWTNLVTTRMHITGGLGAVEGMEGFGAPYELPNLTAYNETCAAVANVFFNYGMYLDSGDAKFLDIAELSLFNNSLAGINLHGDRFFYVNPLEADGVRRFNHGNGGRAKWFGCACCPPNISRLILQVPGYMYAYSKDRVYLTLYGGSQTTIPLEGTRVKLEQTSAYPFDGKVRLTVQPEKGSKFSVCMRIPTWARSDEFVPGGLYPYKQPKQAEVELSVNGQKTDFKMEKGFAVIKRDWKPGDVVELNIPMPVRFVDCIPEVSENIGKTAVTRGPLVYCAEEVDNAGPVQRLYLGDTNEAQAKVANISSGVLQGLERITLPGMEKKVGGITSREITMIPYYAWCNRGDNRTMLVWLNEEASTASIGQQTMAYLRNVKGVNASSVAGGKNISVRALCDGKVSESSADKLTEQWVSEGSGKQWVQVDFREPFLLNSLSVYWLDDQDKITVPSGWSVEYKSDAGWTPLELYVTDSYQMGTDRFNVVHPSGSLEVESVRILIEPQKGKSIGVSEIRFEEGHHHHHH", "soluble on expression in E. coli": "soluble"}
    ]}
  ]
}
